In PMC11286772, “Structural basis of antagonist selectivity in endothelin receptors” (Cell Discovery, 2024):

Legend:
ETA WT = target: T1, ETA WT (Homo sapiens, UniProt P25101); experiment: Calcium mobilization assay, antagonist mode (ET-1 stimulated), CHO-K1 cells; format: cell-based
T1 construct: expressed in transfected cells; host or cells: CHO-K1
T1 sequence (P25101 21-427): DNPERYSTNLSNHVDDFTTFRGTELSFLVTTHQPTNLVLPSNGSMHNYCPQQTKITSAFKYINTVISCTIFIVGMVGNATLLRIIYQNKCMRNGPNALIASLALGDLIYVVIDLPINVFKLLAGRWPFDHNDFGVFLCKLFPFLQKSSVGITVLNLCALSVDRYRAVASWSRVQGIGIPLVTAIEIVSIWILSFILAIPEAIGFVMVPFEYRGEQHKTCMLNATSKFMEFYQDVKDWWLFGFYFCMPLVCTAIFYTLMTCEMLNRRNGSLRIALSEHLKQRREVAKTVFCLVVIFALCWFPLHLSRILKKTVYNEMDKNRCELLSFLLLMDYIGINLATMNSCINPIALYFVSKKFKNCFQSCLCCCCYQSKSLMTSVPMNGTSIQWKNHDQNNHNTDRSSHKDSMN
Method: CHO-K1 cells were cultured in Ham’s F-12K (Kaighn’s) Medium (Gibco-Thermo Fisher Scientific) supplemented with 10% (v/v) fetal bovine serum (FBS; Gibco-Thermo Fisher Scientific), and 100 U/mL Penicillin-Streptomycin (Gibco-Thermo Fisher Scientific) in a humidified incubator at 37 °C with 5% CO2. Cells were seeded in 6-cm dishes overnight; when the density reached 60%–80%, the cells were transferred to F12K Medium supplemented with 10% FBS and transfected with 1.5 μg DNA encoding the ETA WT or mutants or 3 μg DNA encoding the ETB WT or mutants using TransIT2020 (Mirus Biosciences). The next day, transfected cells were harvested from the plate using Versene buffer (Gibco-Thermo Fisher Scientific) and seeded into black-sided, clear-bottomed 384-well plates (Agilent) at a density of 1,5000 cells per well. After 20 h, the 1% dFBS medium was removed, and cells were loaded with 20 μL/well of 1× Calcium 6 dye (Molecular Devices) and incubated at 37 °C for 1 h in the dark. […] All data were analyzed using GraphPad Prism 8 and the data are from at least three independent replicate experiments. All plots are shown as means ± SEM. Data were determined using one-way ANOVA followed by Dunnett’s multiple test compared with WT. The top value was normalized to 100% and the bottom value was normalized to 0% for the final presentation. […]

ETA R232^ECL2A = target: T2, ETA R232^ECL2A (Homo sapiens, UniProt P25101, R232A); experiment: Size exclusion chromatography analysis of Fab301 binding; conditions: ETA R232^ECL2A mutant vs WT
T2 construct: expressed in transfected cells; host or cells: CHO-K1
T2 sequence (P25101 21-427 R232A): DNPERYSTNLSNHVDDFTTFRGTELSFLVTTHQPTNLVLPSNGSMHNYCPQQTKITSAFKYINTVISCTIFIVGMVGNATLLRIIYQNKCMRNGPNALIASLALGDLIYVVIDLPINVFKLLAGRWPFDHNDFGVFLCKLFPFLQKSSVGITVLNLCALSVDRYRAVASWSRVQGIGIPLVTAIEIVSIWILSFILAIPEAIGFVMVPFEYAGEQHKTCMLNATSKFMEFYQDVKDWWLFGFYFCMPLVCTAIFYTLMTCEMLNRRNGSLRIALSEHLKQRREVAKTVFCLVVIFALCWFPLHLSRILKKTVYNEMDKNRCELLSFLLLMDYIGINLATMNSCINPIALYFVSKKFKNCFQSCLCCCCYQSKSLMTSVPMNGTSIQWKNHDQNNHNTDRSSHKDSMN
From the text: (§1) To pinpoint the exact ECL2 residues involved in binding, we performed an extensive alanine scanning mutagenesis. Our size exclusion chromatography analysis identified that the region spanning residues 230^ECL2–235^ECL2 in ETA, and in particularly, residues R232^ECL2 and G233^ECL2, are crucial for Fab301 binding. […] Moreover, the hydrophobic interactions at this interface are crucial for antibody binding, as confirmed by our calcium mobilization assay on Fab301 (Supplementary Fig. S9b). Within this model, E230^ECL2 establishes hydrogen bonds with the CDRL1 and CDRL2 regions of Fab301, whereas Y231^ECL2 and E234^ECL2, together with R232^ECL2, participate in a complex hydrogen bond network within the CDRH3 region of Fab301 (Fig. 6c).

ETA G233^ECL2A = target: T3, ETA G233^ECL2A (Homo sapiens, UniProt P25101, G233A); experiment: as above; conditions: ETA G233^ECL2A mutant vs WT
T3 construct: expressed in transfected cells; host or cells: CHO-K1
T3 sequence (P25101 21-427 G233A): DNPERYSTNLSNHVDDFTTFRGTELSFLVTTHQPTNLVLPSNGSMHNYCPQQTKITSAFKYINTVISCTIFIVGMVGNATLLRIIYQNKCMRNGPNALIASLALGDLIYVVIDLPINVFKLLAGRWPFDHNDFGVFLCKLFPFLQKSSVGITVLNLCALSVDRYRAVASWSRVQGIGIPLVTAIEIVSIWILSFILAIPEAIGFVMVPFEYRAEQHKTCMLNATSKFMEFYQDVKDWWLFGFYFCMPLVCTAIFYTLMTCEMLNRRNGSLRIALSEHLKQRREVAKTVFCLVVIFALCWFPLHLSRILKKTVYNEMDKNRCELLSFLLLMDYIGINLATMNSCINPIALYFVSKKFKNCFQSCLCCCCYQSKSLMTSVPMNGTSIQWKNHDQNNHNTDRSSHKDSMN
From the text: as §1

Effect on ET-1-induced ETA signaling (ETA WT): antagonistic effects
Fab301's binding to ETA (ETA R232^ECL2A): near-complete loss
Fab301's binding to ETA (ETA G233^ECL2A): near-complete loss
B1: Fab301: ETA-specific antibody Fab fragment produced from Getagozumab (antibody, V domains shown)
VH: QVTLKESGPTLVKPTQTLTLTCTFSGFSLTTSGLGVAWIRQPPGKALEWLAHIWSDGDTRYYPALKNRLTITKDTSKNQVVLTMTNMDPVDTATYYCAHMKDDSLYFDNWGQGTLVTVSS
VL: EIVLTQSPDFQSVTPKEKVTITCRASQNIGTSIHWYQQKPDQYPKLLIKYASKSISGVPSRFSGSGSGTDFTLTINSLEAEDAATYYCQHSYSFPWTFGQGTKVEIK
